What was measured:
[1] = biological target: disulfide-stabilized SF162 L1-SS-L2 gp120 (V59C & S109C) (HIV-1 strain SF162) (UniProt P19550); experiment: SPR BIAcore 3000, b12 immobilized; Kd compared with wild-type gp120
[2] = biological target: HIV-1 SF162 gp120 (wild type, unmodified) (HIV-1 strain SF162) (UniProt P19550); experiment: SPR BIAcore 3000, b12 amine-coupled on CM5, gp120 as analyte, 25 C, 1:1 Langmuir fit
[3] = biological target: disulfide-stabilized SF162 L1-SS-L2 gp120 (V59C & S109C) (HIV-1 strain SF162) (UniProt P19550); experiment: SPR BIAcore 3000, b12 amine-coupled on CM5, gp120 L1-SS-L2 as analyte, 25 C, 1:1 Langmuir fit

mAb b12 (antibody)
fold difference in Kd against wild-type gp120 [1]: < 7 fold
Kd [2]: 0.0448 µM
koff [2]: 0.00712 s⁻¹
kon [2]: 165000 M⁻¹ s⁻¹
Kd [3]: 0.304 µM
koff [3]: 0.00885 s⁻¹
kon [3]: 29100 M⁻¹ s⁻¹
